Legend:
[1] = biological target: PXN/paxillin, exogenously expressed in HEK293T cells (human) (UniProt P49023); experiment: cross-linking
[2] = biological target: recombinant PXN WT (human) (UniProt P49023); experiment: SEC-MALS

Substance | stoichiometry N [1] | stoichiometry N [2]
PXN/paxillin, exogenously expressed in HEK293T cells (from UniProt P49023-2 1-557) (natural protein) | 2 | –
recombinant PXN WT (from UniProt P49023-2 1-557) (natural protein) | – | 2

From article doi:10.1101/2023.02.03.526950
